Data published in patent US20250188166A1 (BRIGHT PEAK THERAPEUTICS, published 2025).
Like-named read-outs stand apart in the source and are kept apart here.

How the values were obtained:
[1] = target: human PD-1 on Jurkat T cells (human, UniProt Q15116 25-288); assay: cell-based or functional assay
[2] = target: T1, recombinant Human Fc gamma RI/CD64 Protein (human, UniProt P12314 16-288); assay: ELISA; antibody coated, His-tagged receptor titrated
T1 construct: also called FcγRI/(CD64); human Fc gamma receptor I
Procedure: (§1) The interaction of the unmodified and of conjugated antibodies with human Fc gamma receptors I (FcγRI/CD64), with human Fc gamma receptors IIa (FcγRIIa/CD32a), with inhibitory human Fc gamma receptors IIb (FcγRIIb/CD32b), and with human Fc gamma receptors III FcγRIIIa/CD16 were measured by ELISA.
(§2) Briefly, Corning high-binding half-area plates (Fisher Scientific, Reinach, Switzerland) were coated overnight at 4° C. with 25 ul of unmodified and of conjugated anti-PD1 antibodies at 2.5 μg/ml in PBS. Plates were then washed four times with 100 ul of PBS-0.02% Tween20. Plates surfaces were blocked with 25 ul of PBS-0.02% Tween20-1% BSA at 37° C. during 1h. Plates were then washed four times with 100 ul of PBS-0.02% Tween20. Then twenty-five microliters of either recombinant Human Fc gamma RI/CD64 Protein (R&D systems, 1257-FC-050, CF), recombinant Human Fc gamma RIIA/CD32a (H167) Protein (R&D systems, 9595-CD-050, CF), recombinant Human Fc gamma RIIB/CD32b Avi-tag Protein (R&D systems, AVI1875-050, CF), or recombinant Human Fc gamma RIIIA/CD16a Protein (R&D systems, 4325-FC-050; CF) were added in five-fold serial dilutions ranging from 1000 nM to 0.001 nM into PBS-0.02% Tween20-0.1% BSA and incubated at 37° C. during 2h. Plates were then washed four times with 100 ul of PBS-0.02% Tween20. Twenty-five microliters of a 1/500 HRP-anti-His antibody in PBS-0.02% Tween20-0.1% BSA (R&D systems, anti-HIS-HRP Ab, #MAB050H) were added to each well and plates were incubated at Room Temperature during 1h. Plates were then washed four times with 100 ul of PBS-0.02% Tween20. Fifty microliters of TMB substrate reagent (#CL07, Merck, Buchs, Switzerland) were added to each well and incubated at 37° C. during 5 min. After 5 min at 37° C., Horseradish peroxidase reaction was stopped by adding 50 ul/well of 0.5M H2SO₄ stop solution. ELISA signal was then measured at 450 nm on an EnSpire plate reader from Perkin Elmer (Schwerzenbach, Switzerland).

[3] = target: T2, recombinant Human Fc gamma RIIA/CD32a (H167) Protein (human, UniProt P12318 36-218, limits assumed); assay: as above
T2 construct: also called FcγRIIa (CD32a)
T2 sequence (looked up): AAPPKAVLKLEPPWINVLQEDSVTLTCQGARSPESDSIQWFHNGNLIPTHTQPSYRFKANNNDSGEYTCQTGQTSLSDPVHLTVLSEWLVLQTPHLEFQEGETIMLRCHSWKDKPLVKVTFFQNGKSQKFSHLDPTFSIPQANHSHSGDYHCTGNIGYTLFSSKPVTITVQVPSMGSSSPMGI
Procedure: as §1, §2

[4] = target: T3, recombinant Human Fc gamma RIIIA/CD16a Protein (human, UniProt P08637 17-208, limits assumed); assay: as above
T3 construct: also called FcγRIIIa (CD16)
Procedure: as §1, §2

[5] = target: T4, recombinant Human Fc gamma RIIB/CD32b Avi-tag Protein (human, UniProt P31994 46-217); assay: as above
T4 construct: also called FcγRIIb (CD32b)
T4 sequence (looked up): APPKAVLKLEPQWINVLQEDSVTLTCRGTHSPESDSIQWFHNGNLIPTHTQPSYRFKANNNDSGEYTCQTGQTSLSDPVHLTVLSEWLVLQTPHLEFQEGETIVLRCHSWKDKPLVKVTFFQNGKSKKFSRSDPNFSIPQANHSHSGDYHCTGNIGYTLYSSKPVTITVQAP
Procedure: as §1, §2

[6] = target: T5, recombinant biotinylated human FcRn (human, UniProt P55899 24-297; P61769 21-119, limits assumed, biotinylated); assay: AlphaLISA competition at pH 6; competitor human IgG acceptor beads
T5 construct: Kit reagent; also called human neonatal Fc receptor
Procedure: (§3) The interaction of the unmodified and of conjugated anti-PD1 antibodies with the human neonatal Fc receptor (FcRn) at pH 6 was measured using the AlphaLISA® Human FcRn Binding Kit (AL3095C) from Perkin Elmer (Schwerzenbach, Switzerland).
(§4) After 90 min at 23° C. in the dark, AlphaLISA® signal was measured on an EnSpire plate reader (Excitation at 680 nm, Emission at 615 nm) from Perkin Elmer (Schwerzenbach, Switzerland).

[7] = target: T5, recombinant biotinylated human FcRn; assay: as above; remark: listed apart in the source
Procedure: as §3, §4

[8] = target: T1, recombinant Human Fc gamma RI/CD64 …; assay: ELISA: antibody coated (2.5 µg/ml), His-tagged recombinant human FcγRI/CD64 titrated (x-axis), anti-His-HRP/TMB, 450 nm
Procedure: as §1
as §2, with “Plates were then washed four times with 100 ul of PBS-0.02% Tween20. Twenty-five microliters of a 1/500 HRP-anti-His antibody in PBS-0.02% Tween20-0.1% BSA (R&D systems, anti-HIS-HRP Ab, #MAB050H) were added to each well and plates were incubated at Room Temperature during 1h. Plates were then washed four times with 100 ul of PBS-0.02% Tween20. Fifty microliters of TMB substrate reagent (#CL07, Merck, Buchs, Switzerland) were added to each well and incubated at 37° C. during 5 min. After 5 min at 37° C., Horseradish peroxidase reaction was stopped by adding 50 ul/well of 0.5M H2SO₄ stop solution.” left out

[9] = target: T6, Biotinylated Recombinant Human PD-1/CD279-Fc Chimera (human, UniProt Q15116 25-167, biotinylated); assay: ELISA: antibody coated on the plate (5 µg/ml), biotinylated human PD-1-Fc titrated (x-axis, Concentration (nM)), streptavidin-HRP/TMB, 450 nm
T6 construct: Bought (Biolegend #789406); also called recombinant biotinylated human PD-1

[10] = target: T5, recombinant biotinylated human FcRn; assay: AlphaLISA competition at pH 6: test antibody titrated against human IgG acceptor beads for biotinylated human FcRn on streptavidin donor beads; loss of signal
Procedure: as §3, §4

[11] = target: T5, recombinant biotinylated human FcRn; assay: AlphaLISA competition at pH 6: test antibody titrated against human IgG acceptor beads for biotinylated human FcRn on streptavidin donor beads; normalized signal

EC50 (read off the curve) [1]: ~2 nM
Kd [2]: 0.315 nM
Kd [3]: 1350 nM
Kd [4]: 1710 nM
Kd [5]: 2630 nM
Kd [6]: 6 nM
Kd [7]: 6 nM
EC50 (read off the curve) [8]: ~0.2 nM
EC50 (read off the curve) [9]: ~0.03 nM
IC50 (read off the curve) [10]: ~5 nM
IC50 (read off the curve) [11]: ~5 nM
B1: LZM-009 (antibody, human IgG4 S228P, kappa)
heavy: not shown
light: EIVLTQSPATLSLSPGERATISCRASKGVSTSGYSYLHWYQQKPGQAPRLLIYLASYLESGVPARFSGSGSGTDFTLTISSLEPEDFATYYCQHSRELPLTFGTGTKVEIKRTVAAPSVFIFPPSDEQLKSGTASVVCLLNNFYPREAKVQWKVDNALQSGNSQESVTEQDSKDSTYSLSSTLTLSKADYEKHKVYACEVTHQGLSSPVTKSFNRGEC
notes: IgG4 anti-PD-1 antibody; also called CMP2000
